Source: IntAct's records for PubMed 19448033

What was measured:
cipko_arath CIPK24 [1] = target: cipko_arath CIPK24 (UniProt Q9LDI3)
cipko_arath CIPK24 [2] = target: cipko_arath CIPK24 (UniProt Q9LDI3); remark: listed apart in the source

Chain of cipko_arath CIPK24 (Q9LDI3 whole entry): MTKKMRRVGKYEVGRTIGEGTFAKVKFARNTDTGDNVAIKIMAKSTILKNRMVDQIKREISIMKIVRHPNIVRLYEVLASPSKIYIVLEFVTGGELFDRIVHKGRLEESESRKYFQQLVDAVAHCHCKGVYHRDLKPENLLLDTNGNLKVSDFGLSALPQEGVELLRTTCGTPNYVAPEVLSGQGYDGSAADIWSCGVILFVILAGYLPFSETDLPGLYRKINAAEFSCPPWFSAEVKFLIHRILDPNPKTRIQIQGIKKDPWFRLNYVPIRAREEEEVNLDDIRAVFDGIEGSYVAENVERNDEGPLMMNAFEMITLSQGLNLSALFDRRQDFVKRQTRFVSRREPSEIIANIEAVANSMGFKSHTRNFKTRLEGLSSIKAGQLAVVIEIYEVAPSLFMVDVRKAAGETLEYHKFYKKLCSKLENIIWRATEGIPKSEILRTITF
Chain of Calcineurin B-like protein 10 (Arabidopsis thaliana (Mouse-ear cress)), Q7FRS8-2 S237A (Q7FRS8 other isoform, or with tags, fused parts or gaps S237A): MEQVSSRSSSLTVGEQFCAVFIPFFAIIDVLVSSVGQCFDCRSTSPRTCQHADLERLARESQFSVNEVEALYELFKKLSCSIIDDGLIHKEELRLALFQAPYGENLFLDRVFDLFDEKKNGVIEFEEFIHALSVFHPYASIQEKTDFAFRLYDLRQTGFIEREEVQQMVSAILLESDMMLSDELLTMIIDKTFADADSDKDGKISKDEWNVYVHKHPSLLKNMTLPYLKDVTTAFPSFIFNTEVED
Chain of Calcineurin B-like protein 10 (Arabidopsis thaliana (Mouse-ear cress)), Q7FRS8-2 S237D (Q7FRS8 other isoform, or with tags, fused parts or gaps S237D): as the sequence (Q7FRS8 other isoform, or with tags, fused parts or gaps S237A) above

Row | Substance | effect of a mutation on the interaction (cipko_arath CIPK24 [1]) | effect of a mutation on the interaction (cipko_arath CIPK24 [2])
1 | Calcineurin B-like protein 10 (Arabidopsis thaliana (Mouse-ear cress)), Q7FRS8-2 S237A | decreasing interaction | disrupting interaction
2 | Calcineurin B-like protein 10 (Arabidopsis thaliana (Mouse-ear cress)), Q7FRS8-2 S237D | increasing interaction | –
